These results are taken from paper PMC12102759 (2025).

Sequences and labels used below:
B1: SH3BP2 peptide 408-423 (SH3 domain-binding protein 2), 16-mer library wild type / TNKS ANK (TNKS 12 ANK repeats, residues 174-649) (parent complex)
chain 1: PQLPHLQRSPPDGQSF
chain 2: TGVPAVSGALRELLEACRNGDVSRVKRLVDAANVNAKDMAGRKSSPLHFAAGFGRKDVVEHLLQMGANVHARDDGGLIPLHNACSFGHAEVVSLLLCQGADPNARDNWNYTPLHEAAIKGKIDVCIVLLQHGADPNIRNTDGKSALDLADPSAKAVLTGEYKKDELLEAARSGNEEKLMALLTPLNVNCHASDGRKSTPLHLAAGYNRVRIVQLLLQHGADVHAKDKGGLVPLHNACSYGHYEVTELLLKHGACVNAMDLWQFTPLHEAASKNRVEVCSLLLSHGADPTLVNCHGKSAVDMAPTPELRERLTYEFKGHSLLQAAREADLAKVKKTLALEIINFKQPQSHETALHCAVASLHPKRKQVTELLLRKGANVNEKNKDFMTPLHVAAERAHNDVMEVLHKHGAKMNALDTLGQTALHRAALAGHLQTCRLLLSYGSDPSIISLQGFTAAQMGNEAVQQILSESTPIRTSD

In the experiment the parent is B1. Briefly: proteomic peptide phage display deep mutational scan (ProP-PD DMS): M13 P8 16-mer library selected against immobilised GST-tagged bait for four days (rounds), NGS of the eluted pools per day and pseudo-replica; bait immobilised on MaxiSorp plates (10 µg), library pre-cleared on GST, 2 h binding at 4 °C, five washes; one round per day, days 1-4; value from days 2 and 3.
Consider chain 1 PQLPHLQRSPPEGQSF [chain 1 D12E], for which the screen value is 0.00128 average fractional NGS count over selection days 2 and 3 (reads of this peptide / all reads for the bait, averaged over ….
Take chain 1 PQLPHLQRSPPIGQSF [chain 1 D12I]: the screen value is 0.000718 average fractional NGS count over selection days 2 and 3 (reads of this peptide / all reads for the bait, averaged over ….
For chain 1 PQLPHLQRSPPQGQSF [chain 1 D12Q], the screen value was 0.000387 average fractional NGS count over selection days 2 and 3 (reads of this peptide / all reads for the bait, averaged over ….
Regarding chain 1 PQLPFLQRSPPDGQSF [chain 1 H5F], the screen value is 0.00112 average fractional NGS count over selection days 2 and 3 (reads of this peptide / all reads for the bait, averaged over ….
The figure for chain 1 PQLPVLQRSPPDGQSF [chain 1 H5V] is 0.000333 average fractional NGS count over selection days 2 and 3 (reads of this peptide / all reads for the bait, averaged over …; for chain 1 PQLPQLQRSPPDGQSF [chain 1 H5Q] it is 0.00258 average fractional NGS count over selection days 2 and 3 (reads of this peptide / all reads for the bait, averaged over …; for chain 1 PQLPSLQRSPPDGQSF [chain 1 H5S] it is 0.000337 average fractional NGS count over selection days 2 and 3 (reads of this peptide / all reads for the bait, averaged over ….
To chain 1 PQLPGLQRSPPDGQSF [chain 1 H5G] belongs 0.000153 average fractional NGS count over selection days 2 and 3 (reads of this peptide / all reads for the bait, averaged over ….
To chain 1 PLLPHLQRSPPDGQSF [chain 1 Q2L] belongs 0.00153 average fractional NGS count over selection days 2 and 3 (reads of this peptide / all reads for the bait, averaged over …; to chain 1 PSLPHLQRSPPDGQSF [chain 1 Q2S], 0.00172 average fractional NGS count over selection days 2 and 3 (reads of this peptide / all reads for the bait, averaged over …; to chain 1 PGLPHLQRSPPDGQSF [chain 1 Q2G], 0.000233 average fractional NGS count over selection days 2 and 3 (reads of this peptide / all reads for the bait, averaged over ….
As for chain 1 PALPHLQRSPPDGQSF [chain 1 Q2A], the screen value was 0.000765 average fractional NGS count over selection days 2 and 3 (reads of this peptide / all reads for the bait, averaged over ….
The figure for chain 1 PPLPHLQRSPPDGQSF [chain 1 Q2P] is 0.00147 average fractional NGS count over selection days 2 and 3 (reads of this peptide / all reads for the bait, averaged over …; for chain 1 PKLPHLQRSPPDGQSF [chain 1 Q2K] it is 0.000141 average fractional NGS count over selection days 2 and 3 (reads of this peptide / all reads for the bait, averaged over ….
For chain 1 PFLPHLQRSPPDGQSF [chain 1 Q2F], the screen value is 0.000172 average fractional NGS count over selection days 2 and 3 (reads of this peptide / all reads for the bait, averaged over ….
chain 1 PNLPHLQRSPPDGQSF [chain 1 Q2N]: the screen value is 0.000225 average fractional NGS count over selection days 2 and 3 (reads of this peptide / all reads for the bait, averaged over ….
The figure for chain 1 PQLPHLQRSPPDGESF [chain 1 Q14E] is 0.000266 average fractional NGS count over selection days 2 and 3 (reads of this peptide / all reads for the bait, averaged over …; for chain 1 PQLPHLQRSPPDGMSF [chain 1 Q14M] it is 0.00362 average fractional NGS count over selection days 2 and 3 (reads of this peptide / all reads for the bait, averaged over …; for chain 1 PQLPHLQRSPPDGISF [chain 1 Q14I] it is 0.000236 average fractional NGS count over selection days 2 and 3 (reads of this peptide / all reads for the bait, averaged over ….
For the variant chain 1 PQLPHLQRSPPDGVSF [chain 1 Q14V], the screen value is 0.00071 average fractional NGS count over selection days 2 and 3 (reads of this peptide / all reads for the bait, averaged over ….
To chain 1 PQLPHLQRSPPDGSSF [chain 1 Q14S] belongs 0.0015 average fractional NGS count over selection days 2 and 3 (reads of this peptide / all reads for the bait, averaged over …; to chain 1 PQLPHLQRSPGDGQSF [chain 1 P11G], 0.0132 average fractional NGS count over selection days 2 and 3 (reads of this peptide / all reads for the bait, averaged over ….
The figure for chain 1 PQLPHLWRSPPDGQSF [chain 1 Q7W] is 0.000561 average fractional NGS count over selection days 2 and 3 (reads of this peptide / all reads for the bait, averaged over …; for chain 1 PQLPHLERSPPDGQSF [chain 1 Q7E] it is 0.000295 average fractional NGS count over selection days 2 and 3 (reads of this peptide / all reads for the bait, averaged over …; for chain 1 PQLPHLIRSPPDGQSF [chain 1 Q7I] it is 0.000144 average fractional NGS count over selection days 2 and 3 (reads of this peptide / all reads for the bait, averaged over ….
For chain 1 PQLPHLGRSPPDGQSF [chain 1 Q7G], the screen value is 0.00109 average fractional NGS count over selection days 2 and 3 (reads of this peptide / all reads for the bait, averaged over ….
To chain 1 PQLPHLQRSPPDGQSG [chain 1 F16G] belongs 0.000376 average fractional NGS count over selection days 2 and 3 (reads of this peptide / all reads for the bait, averaged over …; to chain 1 PQLPHLQRSPPDGQSW [chain 1 F16W], 0.000272 average fractional NGS count over selection days 2 and 3 (reads of this peptide / all reads for the bait, averaged over …; to chain 1 PQLPHLQRSPPDGQST [chain 1 F16T], 0.000194 average fractional NGS count over selection days 2 and 3 (reads of this peptide / all reads for the bait, averaged over ….
chain 1 PQLPHLQRSPPDGQSV [chain 1 F16V]: the screen value was 0.00271 average fractional NGS count over selection days 2 and 3 (reads of this peptide / all reads for the bait, averaged over ….
The figure for chain 1 PQLPHLQRSPPDGQSP [chain 1 F16P] is 0.0012 average fractional NGS count over selection days 2 and 3 (reads of this peptide / all reads for the bait, averaged over ….
On to chain 1 PQLPHLQRSPPDGQSN [chain 1 F16N], for which the screen value is 0.000118 average fractional NGS count over selection days 2 and 3 (reads of this peptide / all reads for the bait, averaged over ….
Consider chain 1 PQLPHLQRSPPDGQSY [chain 1 F16Y], for which the screen value was 0.011 average fractional NGS count over selection days 2 and 3 (reads of this peptide / all reads for the bait, averaged over ….
With chain 1 PQLPHLQRSPPDGQSL [chain 1 F16L], the screen value was 0.00209 average fractional NGS count over selection days 2 and 3 (reads of this peptide / all reads for the bait, averaged over ….
The figure for chain 1 PQLPHLQRSPPDGQSI [chain 1 F16I] is 0.000483 average fractional NGS count over selection days 2 and 3 (reads of this peptide / all reads for the bait, averaged over ….
For the variant chain 1 PQTPHLQRSPPDGQSF [chain 1 L3T], the screen value was 0.000337 average fractional NGS count over selection days 2 and 3 (reads of this peptide / all reads for the bait, averaged over ….
To chain 1 PQVPHLQRSPPDGQSF [chain 1 L3V] belongs 0.000203 average fractional NGS count over selection days 2 and 3 (reads of this peptide / all reads for the bait, averaged over ….
In the case of chain 1 PQNPHLQRSPPDGQSF [chain 1 L3N], the screen value was 0.000433 average fractional NGS count over selection days 2 and 3 (reads of this peptide / all reads for the bait, averaged over ….
Regarding chain 1 PQEPHLQRSPPDGQSF [chain 1 L3E], the screen value was 0.00036 average fractional NGS count over selection days 2 and 3 (reads of this peptide / all reads for the bait, averaged over ….
To chain 1 PQAPHLQRSPPDGQSF [chain 1 L3A] belongs 0.000216 average fractional NGS count over selection days 2 and 3 (reads of this peptide / all reads for the bait, averaged over …; to chain 1 PQRPHLQRSPPDGQSF [chain 1 L3R], 0.000308 average fractional NGS count over selection days 2 and 3 (reads of this peptide / all reads for the bait, averaged over …; to chain 1 PQSPHLQRSPPDGQSF [chain 1 L3S], 0.000201 average fractional NGS count over selection days 2 and 3 (reads of this peptide / all reads for the bait, averaged over ….
The figure for chain 1 PQPPHLQRSPPDGQSF [chain 1 L3P] is 0.000341 average fractional NGS count over selection days 2 and 3 (reads of this peptide / all reads for the bait, averaged over …; for chain 1 PQIPHLQRSPPDGQSF [chain 1 L3I] it is 0.000205 average fractional NGS count over selection days 2 and 3 (reads of this peptide / all reads for the bait, averaged over …; for chain 1 PQLLHLQRSPPDGQSF [chain 1 P4L] it is 0.000189 average fractional NGS count over selection days 2 and 3 (reads of this peptide / all reads for the bait, averaged over ….
On to chain 1 PQLIHLQRSPPDGQSF [chain 1 P4I], for which the screen value is 0.000387 average fractional NGS count over selection days 2 and 3 (reads of this peptide / all reads for the bait, averaged over ….
To chain 1 PQLHHLQRSPPDGQSF [chain 1 P4H] belongs 0.00111 average fractional NGS count over selection days 2 and 3 (reads of this peptide / all reads for the bait, averaged over …; to chain 1 PQLDHLQRSPPDGQSF [chain 1 P4D], 0.000447 average fractional NGS count over selection days 2 and 3 (reads of this peptide / all reads for the bait, averaged over ….
To chain 1 PQLAHLQRSPPDGQSF [chain 1 P4A] belongs 0.00484 average fractional NGS count over selection days 2 and 3 (reads of this peptide / all reads for the bait, averaged over ….
For chain 1 PQLSHLQRSPPDGQSF [chain 1 P4S], the screen value is 0.000214 average fractional NGS count over selection days 2 and 3 (reads of this peptide / all reads for the bait, averaged over ….
In the case of chain 1 PQLQHLQRSPPDGQSF [chain 1 P4Q], the screen value was 0.000351 average fractional NGS count over selection days 2 and 3 (reads of this peptide / all reads for the bait, averaged over ….
The figure for chain 1 PQLMHLQRSPPDGQSF [chain 1 P4M] is 0.00173 average fractional NGS count over selection days 2 and 3 (reads of this peptide / all reads for the bait, averaged over …; for chain 1 PQLEHLQRSPPDGQSF [chain 1 P4E] it is 0.000494 average fractional NGS count over selection days 2 and 3 (reads of this peptide / all reads for the bait, averaged over …; for chain 1 PQLPHNQRSPPDGQSF [chain 1 L6N] it is 0.000459 average fractional NGS count over selection days 2 and 3 (reads of this peptide / all reads for the bait, averaged over ….
The figure for chain 1 PQLPHWQRSPPDGQSF [chain 1 L6W] is 0.000131 average fractional NGS count over selection days 2 and 3 (reads of this peptide / all reads for the bait, averaged over ….
On to chain 1 PQLPHTQRSPPDGQSF [chain 1 L6T], for which the screen value was 0.000389 average fractional NGS count over selection days 2 and 3 (reads of this peptide / all reads for the bait, averaged over ….
Take chain 1 PQLPHQQRSPPDGQSF [chain 1 L6Q]: the screen value is 0.000145 average fractional NGS count over selection days 2 and 3 (reads of this peptide / all reads for the bait, averaged over ….
Take chain 1 PQLPHPQRSPPDGQSF [chain 1 L6P]: the screen value is 0.000739 average fractional NGS count over selection days 2 and 3 (reads of this peptide / all reads for the bait, averaged over ….
In the case of chain 1 PQLPHLQRTPPDGQSF [chain 1 S9T], the screen value was 0.00132 average fractional NGS count over selection days 2 and 3 (reads of this peptide / all reads for the bait, averaged over ….
In the case of chain 1 PQLPHLQRAPPDGQSF [chain 1 S9A], the screen value is 0.000813 average fractional NGS count over selection days 2 and 3 (reads of this peptide / all reads for the bait, averaged over ….
The figure for chain 1 PQLPHLQRKPPDGQSF [chain 1 S9K] is 0.000447 average fractional NGS count over selection days 2 and 3 (reads of this peptide / all reads for the bait, averaged over ….
